Experimental data reported in PMC9016638 (bioRxiv, 2022).
No end group written: not given here. *: point of attachment. Biotin = O=C1N[C@H]2[C@H](CS[C@H]2CCCCC(=O)*)N1

Columns and labels:
Experiment in all cases: […]
[1] = molecular target: T1, SARS-CoV-2 S2 peptide 42 (SARS-CoV-2 Wuhan-Hu-1, UniProt P0DTC2)
T1 chain: Biotin-PSKPSKRSFIEDLLF

[2] = molecular target: T2, SARS-CoV-2 S2 peptide 44 (SARS-CoV-2 Wuhan-Hu-1, UniProt P0DTC2)
T2 chain: Biotin-RSFIEDLLFNKVTLA

[3] = molecular target: T3, SARS-CoV-2 S2 peptide 43 (SARS-CoV-2 Wuhan-Hu-1, UniProt P0DTC2)
T3 chain: Biotin-PSKRSFIEDLLFNKV

Measured: binding result

B1: COV44-62 (antibody, V domains shown)
VH: QMQLMQSGAEVKKPGASVTVSCKASGDTFSDYRIHWVRQAPGQGLEWMGRMNPKSGDTNFAQKFQGRVTMTRDMSINTAYMTLSGLTFDDTALYYCASLLIVGGFDPLDDFEVWGQGTMVTISS
VL: QSALTQPPSASGSPGQSVTISCSGTSSDVGGYNFVSWYQHHPGKAPKILIYEVTKRPSGVPDRFSGSKSGNTASLTVSGLQAEDEADYYCSSYGGTNNLLFGGGTKLTVL
binds: all assays above

B2: COV44-79 (antibody, V domains shown)
VH: QVQLVESGGGVVQPGRSLRLSCAASGLTFSGYAMHWVRQAPGKGLEWVAVISRDARNKYYADSVKGRFTISRDNSKKTVYLEMNSLRVEDTAVYYCAILIIPGITEPGSPDALDIWGQGTMVSVSS
VL: DIQMTQSPSSMSASVGDRVTITCRASQDISKWLAWYQQRPGKAPKLLIYAASSLQSGVPSRFSGSGSGTDFTLTISSLQPEDFATYYCQQASSFPWSITFGQGTRLEIR
binds: all assays above
